Consider four molecules from US20080096807A1, “Cyclic vasoactive intestinal peptide receptor-2 agonists” (priority 2006, published 2008).

T1: VPAC2 receptor (human, UniProt P41587)
T1 sequence: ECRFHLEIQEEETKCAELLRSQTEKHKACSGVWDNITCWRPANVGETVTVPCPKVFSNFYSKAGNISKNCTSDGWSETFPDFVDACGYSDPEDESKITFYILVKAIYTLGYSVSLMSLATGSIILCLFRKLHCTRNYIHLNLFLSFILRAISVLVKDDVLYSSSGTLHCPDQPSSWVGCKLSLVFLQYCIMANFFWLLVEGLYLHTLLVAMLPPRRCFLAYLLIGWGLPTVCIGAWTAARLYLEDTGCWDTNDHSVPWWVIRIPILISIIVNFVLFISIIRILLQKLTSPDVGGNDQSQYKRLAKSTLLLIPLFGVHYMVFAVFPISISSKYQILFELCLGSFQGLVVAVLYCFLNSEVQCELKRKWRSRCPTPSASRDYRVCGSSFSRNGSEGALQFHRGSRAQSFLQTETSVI

B1: Ac-His-Ala-Asp-Ala-MeVal-Phe-Thr-Glu-Asn-Tyr-Thr-Lys-Leu-Arg-Lys-Gln-Nle-Ala-Ala-Lys-Lys-Tyr-Leu-Asn-Asp-Leu-Leu-Lys-Gly-Gly-Thr-NH2 (peptide)
peptide: Ac-HADA[αMeV]FTENYTKLRKQ[Nle]AAKKYLNDLLKGGT-NH2
modifications: lactam 21-25
SMILES: CCCC[C@H](NC(=O)[C@H](CCC(N)=O)NC(=O)[C@H](CCCCN)NC(=O)[C@H](CCCNC(=N)N)NC(=O)[C@H](CC(C)C)NC(=O)[C@H](CCCCN)NC(=O)[C@@H](NC(=O)[C@H](Cc1ccc(O)cc1)NC(=O)[C@H](CC(N)=O)NC(=O)[C@H](CCC(=O)O)NC(=O)[C@@H](NC(=O)[C@H](Cc1ccccc1)NC(=O)[C@@](C)(NC(=O)[C@H](C)NC(=O)[C@H](CC(=O)O)NC(=O)[C@H](C)NC(=O)[C@H](Cc1c[nH]cn1)NC(C)=O)C(C)C)[C@@H](C)O)[C@@H](C)O)C(=O)N[C@@H](C)C(=O)N[C@@H](C)C(=O)N[C@@H](CCCCN)C(=O)N[C@H]1CCCCNC(=O)C[C@@H](C(=O)N[C@@H](CC(C)C)C(=O)N[C@@H](CC(C)C)C(=O)N[C@@H](CCCCN)C(=O)NCC(=O)NCC(=O)N[C@H](C(N)=O)[C@@H](C)O)NC(=O)[C@H](CC(N)=O)NC(=O)[C@H](CC(C)C)NC(=O)[C@H](Cc2ccc(O)cc2)NC1=O
B2: Ac-His-Ala-Asp-Ala-MeVal-Phe-Thr-Glu-Asn-Tyr-Thr-Lys-Leu-Arg-Lys-Gln-Nle-Ala-Ala-Lys-Lys-Tyr-Leu-Asn-Asp-Leu-Lys-Lys-Gly-Gly-Thr-NH2 (peptide)
peptide: Ac-HADA[αMeV]FTENYTKLRKQ[Nle]AAKKYLNDLKKGGT-NH2
modifications: lactam 21-25
SMILES: CCCC[C@H](NC(=O)[C@H](CCC(N)=O)NC(=O)[C@H](CCCCN)NC(=O)[C@H](CCCNC(=N)N)NC(=O)[C@H](CC(C)C)NC(=O)[C@H](CCCCN)NC(=O)[C@@H](NC(=O)[C@H](Cc1ccc(O)cc1)NC(=O)[C@H](CC(N)=O)NC(=O)[C@H](CCC(=O)O)NC(=O)[C@@H](NC(=O)[C@H](Cc1ccccc1)NC(=O)[C@@](C)(NC(=O)[C@H](C)NC(=O)[C@H](CC(=O)O)NC(=O)[C@H](C)NC(=O)[C@H](Cc1c[nH]cn1)NC(C)=O)C(C)C)[C@@H](C)O)[C@@H](C)O)C(=O)N[C@@H](C)C(=O)N[C@@H](C)C(=O)N[C@@H](CCCCN)C(=O)N[C@H]1CCCCNC(=O)C[C@@H](C(=O)N[C@@H](CC(C)C)C(=O)N[C@@H](CCCCN)C(=O)N[C@@H](CCCCN)C(=O)NCC(=O)NCC(=O)N[C@H](C(N)=O)[C@@H](C)O)NC(=O)[C@H](CC(N)=O)NC(=O)[C@H](CC(C)C)NC(=O)[C@H](Cc2ccc(O)cc2)NC1=O
B3: Ac-His-Ser-Asp-Ala-MeVal-Phe-Thr-Glu-Asn-Tyr-Thr-Lys-Leu-Arg-Lys-Arg-Nle-Ala-Ala-Lys-Lys-Tyr-Leu-Asn-Asp-Leu-Lys-Lys-Gly-Gly-Thr-NH2 (peptide)
peptide: Ac-HSDA[αMeV]FTENYTKLRKR[Nle]AAKKYLNDLKKGGT-NH2
modifications: lactam 21-25
SMILES: CCCC[C@H](NC(=O)[C@H](CCCNC(=N)N)NC(=O)[C@H](CCCCN)NC(=O)[C@H](CCCNC(=N)N)NC(=O)[C@H](CC(C)C)NC(=O)[C@H](CCCCN)NC(=O)[C@@H](NC(=O)[C@H](Cc1ccc(O)cc1)NC(=O)[C@H](CC(N)=O)NC(=O)[C@H](CCC(=O)O)NC(=O)[C@@H](NC(=O)[C@H](Cc1ccccc1)NC(=O)[C@@](C)(NC(=O)[C@H](C)NC(=O)[C@H](CC(=O)O)NC(=O)[C@H](CO)NC(=O)[C@H](Cc1c[nH]cn1)NC(C)=O)C(C)C)[C@@H](C)O)[C@@H](C)O)C(=O)N[C@@H](C)C(=O)N[C@@H](C)C(=O)N[C@@H](CCCCN)C(=O)N[C@H]1CCCCNC(=O)C[C@@H](C(=O)N[C@@H](CC(C)C)C(=O)N[C@@H](CCCCN)C(=O)N[C@@H](CCCCN)C(=O)NCC(=O)NCC(=O)N[C@H](C(N)=O)[C@@H](C)O)NC(=O)[C@H](CC(N)=O)NC(=O)[C@H](CC(C)C)NC(=O)[C@H](Cc2ccc(O)cc2)NC1=O
B4: Ac-His-Ser-Asp-Ala-MeVal-Phe-Thr-Glu-Asn-Tyr-thr-Lys-Leu-Arg-Lys-Gln-Nle-Ala-Ala-Lys-Lys-Tyr-Leu-Asn-Asp-Leu-Leu-Lys-Gly-Gly-Thr-NH2 (peptide)
peptide: Ac-HSDA[αMeV]FTENYTKLRKQ[Nle]AAKKYLNDLLKGGT-NH2
modifications: lactam 21-25; not fully specified (residue 11); printed as Ac-His-Ser-Asp-Ala-MeVal-Phe-Thr-Glu-Asn-Tyr-thr-Lys-Leu-Arg-Lys-Gln-Nle-Ala-Ala-Lys-Lys-Tyr-Leu-Asn-Asp-Leu-Leu-Lys-Gly-Gly-Thr-NH2

Bridge positions count the residues as written; N and C are the ends. Square brackets hold non-standard residues; d marks the D form. αMeV = CC(C)[C@](C)(N)C(=O)O; Nle = CCCC[C@H](N)C(=O)O

In the assay the target is T1, VPAC2 receptor. Kind of assay: cell-based or functional assay.
For the molecule B1, the “Sup-T1 cAMP EC50” value came out at 4.07 nM. As for B2, the figure is 4.75 nM; as for B3, 10.5 nM; as for B4, 9.45 nM.
